Measured values from publication PMC11283454 (Nature Communications, 2024).

Target: the molecule itself
Test: MST

B1: human ATE1 isoform 2 (arginyl-tRNA-protein transferase 1), recombinant (enzyme, UniProt O95260-2 1-518, looked up)
chain: MAFWAGGSPSVVDYFPSEDFYRCGYCKNESGSRSNGMWAHSMTVQDYQDLIDRGWRRSGKYVYKPVMNQTCCPQYTIRCRPLQFQPSKSHKKVLKKMLKFLAKGEVPKGSCEDEPMDSTMDDAVAGDFALINKLDIQCDLKTLSDDIKESLESEGKNSKKEEPQELLQSQDFVGEKLGSGEPSHSVKVHTVPKPGKGADLSKPPCRKAKEIRKERKRLKLMQQNPAGELEGFQAQGHPPSLFPPKAKSNQPKSLEDLIFESLPENASHKLEVRLVPVSFEDPEFKSSFSQSFSLYVKYQVAIHQDPPDECGKTEFTRFLCSSPLEAETPPNGPDCGYGSFHQQYWLDGKIIAVGVIDILPNCVSSVYLYYDPDYSFLSLGVYSALREIAFTRQLHEKTSQLSYYYMGFYIHSCPKMKYKGQYRPSDLLCPETYVWVPIEQCLPSLENSKYCRFNQDPEAVDEDRSTEPDRLQVFHKRAIMPYGVYKKQQKDPSEEAAVLQYASLVGQKCSERMLLFRN
modifications: red Tris-NTA dye on the labelled copy in MST
With B1 the Kd was 8.5 µM.
